Reference: publication PMC6711530, “Identification of zinc and Zur-regulated genes in Corynebacterium diphtheriae”

T1: Zur (zinc uptake regulator) (Corynebacterium diphtheriae (strain of …, UniProt Q6NG23 1-142))
T1 sequence: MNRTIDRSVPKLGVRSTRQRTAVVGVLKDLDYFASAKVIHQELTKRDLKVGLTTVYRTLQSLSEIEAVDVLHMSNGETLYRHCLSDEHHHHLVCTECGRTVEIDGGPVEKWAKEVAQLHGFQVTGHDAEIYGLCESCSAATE


Experiments:
[1] = molecular target: T1, Zur (zinc uptake regulator); experiment: EMSA; 5 uM ZnCl2; 100 nM Zur, 1 nM oligo duplex; 10 mM Tris pH 7.5, 55 mM KCl, 1 mM DTT, 10% glycerol, 0.05% NP-40, 100 ug/ml BSA, 0.03 ug/ml salmon sperm DNA, 5 uM ZnCl2 (or Zn/EDTA titration 0.25-250 uM); temperature not stated; conditions: protein: recombinant; tags: His-tag (pET30a); chain copies: 2; label: 5' biotin on strand 1; blunt
[2] = molecular target: T1, Zur (zinc uptake regulator); experiment: EMSA; 250 uM EDTA; 100 nM Zur, 1 nM oligo duplex; 10 mM Tris pH 7.5, 55 mM KCl, 1 mM DTT, 10% glycerol, 0.05% NP-40, 100 ug/ml BSA, 0.03 ug/ml salmon sperm DNA, 5 uM ZnCl2 (or Zn/EDTA titration 0.25-250 uM); temperature not stated; conditions: protein: recombinant; tags: His-tag (pET30a); chain copies: 2; label: 5' biotin on strand 1; blunt

Binder	binding result [1]	binding result [2]
cztA (dip1101) site 1 (dsDNA) DNA 1: GGGTATCAGTACACATTATTTTCAATAAAGCCC DNA 2: GGGCTTTATTGAAAATAATGTGTACTGATACCC	binds	
cztA (dip1101) site 2 (dsDNA) DNA 1: GGGCATAAATGAAAATATGGGCTATGCTGCCCC DNA 2: GGGGCAGCATAGCCCATATTTTCATTTATGCCC	binds	
adhA (dip2114) site (dsDNA) DNA 1: CCCTTCTAATGGTACCTATTTTCAATAGGTGGG DNA 2: CCCACCTATTGAAAATAGGTACCATTAGAAGGG		binds
iutA (dip0169) DtxR binding site (dsDNA) DNA 1: CCCTGTTTTAGCTTAGCCCTAGCTAATTTGGGG DNA 2: CCCCAAATTAGCTAGGGCTAAGCTAAAACAGGG	no binding	
cmrA (dip2325) site (dsDNA) DNA 1: CCCAATTATCGGTAATTATTTTCATTAAAAGGG DNA 2: CCCTTTTAATGAAAATAATTACCGATAATTGGG		binds
